In publication PMC8509808, “Characterization of the Chimeric PriB-SSBc Protein” (International Journal of Molecular Sciences, 2021):

B1: dT60 (ssDNA)
DNA: TTTTTTTTTTTTTTTTTTTTTTTTTTTTTTTTTTTTTTTTTTTTTTTTTTTTTTTTTTTT
B2: dT55 (ssDNA)
DNA: TTTTTTTTTTTTTTTTTTTTTTTTTTTTTTTTTTTTTTTTTTTTTTTTTTTTTTT

Key:
Details in all cases: protein: recombinant; tags: none (tag-free); chain copies: 2; label: 5'-32P
[1] = molecular target: T1, PriB-SSBc (chimera KpPriB 1-98 fused to KpSSB 112-174) (Klebsiella pneumoniae, UniProt A6THB2 1-98+A6TGW7:112-174, internal_change); test: EMSA; monomer conc.; 1 complex; EMSA: 20 mM Tris-HCl pH 8.0, 100 mM NaCl, 25 C, 30 min, 1.7 nM 32P-ssDNA; 8% native PAGE in TBE at 4 C
[2] = molecular target: T1, PriB-SSBc (chimera KpPriB 1-98 fused to …); test: EMSA; ND; up to 5 uM protein; EMSA: 20 mM Tris-HCl pH 8.0, 100 mM NaCl, 25 C, 30 min, 1.7 nM 32P-ssDNA; 8% native PAGE in TBE at 4 C
[3] = molecular target: T1, PriB-SSBc (chimera KpPriB 1-98 fused to …); test: EMSA; monomer conc.; 2 complexes; EMSA: 20 mM Tris-HCl pH 8.0, 100 mM NaCl, 25 C, 30 min, 1.7 nM 32P-ssDNA; 8% native PAGE in TBE at 4 C

Binder | apparent K (half saturation) [1] | other results
TTTTTTTTTTTTTTTTTTTTTTTTT (ssDNA) [dT25] | 1150 ± 120 nM | 
TTTTTTTTTTTTTTTTTTTT (ssDNA) [dT20] | 2120 ± 180 nM | 
TTTTTTTTTTTTTTTTTTTTTTTTTTTTTT (ssDNA) [dT30] | 940 ± 80 nM | 
TTTTTTTTTTTTTTT (ssDNA) [dT15] |  | binding result [2]: no binding
TTTTTTTTTTTTTTTTTTTTTTTTTTTTTTTTTTTTTTTTTTTTTTTTTT (ssDNA) [dT50] | 290 ± 20 nM | 
B1 |  | apparent K (half saturation) [3]: 230 ± 20 nM
B2 |  | apparent K (half saturation) [3]: 330 ± 30 nM
TTTTTTTTTTTTTTTTTTTTTTTTTTTTTTTTTTTTTTTT (ssDNA) [dT40] | 840 ± 60 nM | 
